Measured values reported in patent US5750349.
pIC50: −log10 of the molar value.

How the values were obtained:
β-amyloid (1-38) [1] = assay: sandwich EIA, solid phase BAN-50a, label BA-27a-HRP
β-amyloid (1-39) [2] = assay: as above
β-amyloid (1-42) [3] = assay: as above
β-amyloid (1-40) [4] = assay: sandwich EIA, solid phase BAN-052a, label BA-27a-HRP
β-amyloid (1-40) [5] = assay: sandwich EIA, solid phase BA-27a, label BAN-052a-HRP
β-amyloid (1-40) [6] = assay: competitive EIA with β-Gal-labeled βA(1-40); unlabeled peptide varied
β-amyloid (1-40) [7] = assay: sandwich EIA, solid phase BAN-50a, label BA-27a-HRP (1500-fold dilution)
β-amyloid (1-40) [8] = assay: sandwich EIA, solid phase BAN-50a, label BA-27a-HRP (1000-fold dilution)
β-amyloid (1-38) [9] = assay: sandwich EIA, solid phase BAN-50a, label BA-27a-HRP; against β-amyloid (1-40)
β-amyloid (1-39) [10] = assay: as above
β-amyloid (1-42) [11] = assay: as above

BA-27a (antibody)
detection sensitivity (β-amyloid (1-38) [1]): 85 pg/well | detection sensitivity (β-amyloid (1-39) [2]): 17 pg/well | detection sensitivity (β-amyloid (1-42) [3]): 18 pg/well | detection sensitivity (β-amyloid (1-40) [4]): 0.6 pg/well | detection sensitivity (β-amyloid (1-40) [5]): 10 pg/well | pIC50 (β-amyloid (1-40) [6]): 6.70 | detection sensitivity (β-amyloid (1-40) [7]): 0.2 pg/well | detection sensitivity (β-amyloid (1-40) [8]): 0.2 pg/well | cross reactivity (β-amyloid (1-38) [9]): < 2% | cross reactivity (β-amyloid (1-39) [10]): < 2% | cross reactivity (β-amyloid (1-42) [11]): < 2%
